Experimental data taken from article doi:10.1101/2025.08.04.668577.

Assays:
[1] = biological target: E2 ectodomain of HCV strain 1a116 (hepatitis C virus (genotype 1a, strain 1a116))
[2] = biological target: E2 ectodomain of HCV strain 1a142 (hepatitis C virus (genotype 1a, strain 1a142)); assay: ELISA

B1: HEPC108 IgG (antibody, V domains shown)
VH: QVQLVQSGAEVKKPGSSVKVSCKASGDTFSSSAISWVRQAPGQGLEWMGGSIPIFGATKYAQKFQGRVTITTDKSTSTAYMELSSLRFEDTAVYYCARASIVNISGFVRFRFDSWGQGTLVTVSS
VL: DIQMTQSPSSLSASVGDRVTITCQASQDISNYLNWYQQKPGKAPKLLIYDVSNLEIGVPSRFSGSGSGTEFTLTINSLQPEDLATYFCQHYDDVPPVYTFGQGTSLEIK
[1]
  HCVpp neutralization IC50 (1a116 HCVpp, Huh7 cells): 0.12 µg/mL
[2]
  fold weaker binding than HEPC74 and AR3C (ELISA): 1.5 fold
